Blank lines part the entries; values can stand above or below the molecule they belong to.
How the values were obtained:
[1] = target: human GARP/human latent TGF-β1 complex on recombinant cells (293F-hGARP/hTGF-β1, CHOK1-hGARP/hTGF-β1) (human) (UniProt Q14392); assay: flow cytometry on 293F-hGARP/hTGF-β1 clone 2D3
[2] = target: human GARP/human latent TGF-β1 complex on recombinant cells (293F-hGARP/hTGF-β1, CHOK1-hGARP/hTGF-β1) (human) (UniProt Q14392); assay: flow cytometry on 293F-hGARP/hTGF-β1 clone 2F4
[3] = target: T1, human GARP/human latent TGF-β1 complex on recombinant cells (293F-hGARP/hTGF-β1, CHOK1-hGARP/hTGF-β1) (human, UniProt Q14392 20-662; P01137 30-390); assay: flow cytometry titration on 293F-hGARP/hTGF-β1 cells, Alexa 488 anti-mouse IgG secondary
T1 construct: whole, on cells; Both full-length proteins were co-expressed on 293F or CHOK1 cells; The host cell of each assay is named in the assay field; also called 293F-hGARP/hTGF-β1 complex; clones 2F4 and 2D3
T1 sequence (Q14392 20-662, chain 1 of 2): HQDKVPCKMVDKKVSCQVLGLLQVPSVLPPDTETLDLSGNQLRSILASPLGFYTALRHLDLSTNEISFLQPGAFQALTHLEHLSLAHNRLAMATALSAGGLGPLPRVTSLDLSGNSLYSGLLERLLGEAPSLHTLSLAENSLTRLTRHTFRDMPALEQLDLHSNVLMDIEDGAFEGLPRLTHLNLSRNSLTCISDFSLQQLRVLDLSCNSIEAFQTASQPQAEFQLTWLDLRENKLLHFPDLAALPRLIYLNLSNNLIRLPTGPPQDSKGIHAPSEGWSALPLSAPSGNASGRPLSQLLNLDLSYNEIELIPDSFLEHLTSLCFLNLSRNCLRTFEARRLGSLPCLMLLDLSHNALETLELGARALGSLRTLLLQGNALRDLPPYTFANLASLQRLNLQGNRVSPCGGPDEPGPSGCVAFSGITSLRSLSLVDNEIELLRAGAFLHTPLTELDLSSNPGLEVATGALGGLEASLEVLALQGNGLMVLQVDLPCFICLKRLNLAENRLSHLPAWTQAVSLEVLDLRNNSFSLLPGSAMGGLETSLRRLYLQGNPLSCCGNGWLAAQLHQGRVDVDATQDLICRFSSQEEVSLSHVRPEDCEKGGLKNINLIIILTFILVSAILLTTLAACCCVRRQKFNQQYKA
T1 sequence (P01137 30-390, chain 2 of 2): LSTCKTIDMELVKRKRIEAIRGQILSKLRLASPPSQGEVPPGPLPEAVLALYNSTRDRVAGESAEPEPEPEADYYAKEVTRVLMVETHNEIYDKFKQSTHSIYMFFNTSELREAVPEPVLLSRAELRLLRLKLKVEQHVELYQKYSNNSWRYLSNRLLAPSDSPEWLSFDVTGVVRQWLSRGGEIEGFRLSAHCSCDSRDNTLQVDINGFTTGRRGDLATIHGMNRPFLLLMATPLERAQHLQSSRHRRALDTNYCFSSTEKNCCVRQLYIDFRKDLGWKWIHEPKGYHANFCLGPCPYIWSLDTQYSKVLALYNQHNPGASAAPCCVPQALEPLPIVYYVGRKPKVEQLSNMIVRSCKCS
Protocol: The cells were counted and centrifuged at 300 g for 5 min, the supernatant was discarded, the cell pellet was resuspended and washed with 1×PBS, then centrifuged at 300 g for 5 min, the supernatant was discarded, and then the cell pellet was resuspended with FACS buffer containing 2% FBS to adjust to a density of 1e6 cells/mL. The cells were plated at a density of 1e5 cells/well for a constant volume of 100 μL/well at 4° C. for 0.5 h, and centrifuged at 300 g for 5 min, and the supernatant was discarded. The antibody to be tested was prepared in FACS buffer containing 2% FBS with a starting concentration of 15 µg/mL, followed by serial dilution with a dilution factor of 1:5 in a total of 7 gradients, and then was added for a constant volume of 100 μL/well, with 0 μg/mL as a control, the dilution was pipetted and mixed thoroughly at 4° C. for 1 h, and centrifuged at 300 g for 5 min, and the supernatant was discarded. 1×PBS was added for a constant volume of 200 μL/well to resuspend and mix the cell pellet thoroughly, followed by centrifugation at 300 g for 5 min, the supernatant was discarded, and the steps were repeated twice. […] The cell pellet was resuspended in FACS buffer containing 2% FBS to read on a FACS machine. […]

[4] = target: T1, human GARP/human latent TGF-β1 complex …; assay: flow cytometry competition on 293F-hGARP/hTGF-β1 cells; the competitor is Alexa 488-labelled MHG8 at a fixed concentration; falling curve
[5] = target: T2, hGARP/hTGF-β1 complex (Kactus Biosystems, Cat. No.: GAR-HM4TG) (human, UniProt Q14392 20-627; P01137 30-390, limits assumed); assay: Octet RED96e (BLI), antibody captured on AHC sensor, complex in solution from 100 nM, 1:1 model
T2 construct: Bought soluble recombinant complex; also called antigen (hGARP/hTGF-β1 complex)
T2 sequence (Q14392 20-627 limits assumed, chain 1 of 2): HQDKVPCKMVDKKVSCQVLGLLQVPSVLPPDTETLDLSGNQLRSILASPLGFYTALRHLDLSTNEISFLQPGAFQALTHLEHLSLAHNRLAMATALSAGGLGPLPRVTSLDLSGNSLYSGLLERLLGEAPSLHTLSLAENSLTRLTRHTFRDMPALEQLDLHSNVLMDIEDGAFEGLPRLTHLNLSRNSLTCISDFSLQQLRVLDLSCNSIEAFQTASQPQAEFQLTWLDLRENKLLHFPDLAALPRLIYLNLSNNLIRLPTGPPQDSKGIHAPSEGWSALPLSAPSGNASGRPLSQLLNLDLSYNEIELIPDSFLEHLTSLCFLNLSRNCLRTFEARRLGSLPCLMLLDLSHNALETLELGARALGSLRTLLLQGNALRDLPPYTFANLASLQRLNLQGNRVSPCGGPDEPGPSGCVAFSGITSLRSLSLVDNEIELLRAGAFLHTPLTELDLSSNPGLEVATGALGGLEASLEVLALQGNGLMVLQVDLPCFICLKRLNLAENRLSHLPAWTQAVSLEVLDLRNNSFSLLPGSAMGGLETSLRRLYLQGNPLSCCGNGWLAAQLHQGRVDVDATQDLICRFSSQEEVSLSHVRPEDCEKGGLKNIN
T2 sequence (P01137 30-390 limits assumed, chain 2 of 2): as the sequence (P01137 30-390, chain 2 of 2) above

Chain of human GARP/human latent TGF-β1 complex on recombinant cells (293F-hGARP/hTGF-β1, CHOK1-hGARP/hTGF-β1) (human) (Q14392 20-662, chain 1 of 2): as the sequence (Q14392 20-662, chain 1 of 2) above
Chain of human GARP/human latent TGF-β1 complex on recombinant cells (293F-hGARP/hTGF-β1, CHOK1-hGARP/hTGF-β1) (human) (P01137 30-390, chain 2 of 2, further chain): as the sequence (P01137 30-390, chain 2 of 2) above

Molecule: anti-human GARP antibody-FITC (Enzo life science, ALX-804-867FI-0100)
Mean maximum fluorescence intensity (MFI) [1]: 6960 MFI
Mean maximum fluorescence intensity (MFI) [2]: 8370 MFI

Molecule: anti-human TGF-β1 antibody, Anti-LAP (TGF-β1) Antibody-APC (R&D Systems, FAB2463A)
Mean maximum fluorescence intensity (MFI) [1]: 142000 MFI
Mean maximum fluorescence intensity (MFI) [2]: 150000 MFI

B1: murine anti-human GARP monoclonal antibody 8H2D7B3 (antibody, V domains shown)
VH: QVQLQQSGAELVRPGSSVKLSCKASGYTLSNYWMYWVKQRPIQGLEWIGSIAPSDSETHYNQKFKDRATVTVDKSSRIVYMQLSSLTSEDSAVYFCARGGFGYGSSHWYFDVWGTGTTVTVSS
VL: DIQMTQSSAYLSVSLGGRVTITCKASDHINKWLAWYQQKPGNAPRLLISGATSLETGIPSRFSGSGSGKDYTLSITGLQTEDVATYYCQQYWTTPYTFGGGTKLEIK
notes: Antibody purified from the hybridoma; It was detected with anti-mouse IgG, and mouse IgG1 served as isotype control; also called murine antibody 8H2D7B3
EC50 [3]: 0.108 µg/mL
EC50 [4]: 1.61 µg/mL

More lines, now with the values ahead:

Mean maximum fluorescence intensity (MFI) [1]: 103 MFI
Mean maximum fluorescence intensity (MFI) [2]: 90 MFI
Molecule: Isotype control-APC (antibody)

Mean maximum fluorescence intensity (MFI) [1]: 103 MFI
Mean maximum fluorescence intensity (MFI) [2]: 101 MFI
Molecule: Isotype control-FITC (antibody)

Kd [5]: 0.205 nM
koff [5]: 2.85e-05 s⁻¹
kon [5]: 139000 M⁻¹ s⁻¹
EC50 [3]: 0.12 µg/mL
EC50 [4]: 2.74 µg/mL
B2: MHG8 (anti-human GARP antibody) (antibody, V domains shown)
VH: QVQLKESGPGLVAPSQSLSITCTVSGFSLTGYGINWVRQPPGKGLEWLGMIWSDGSTDYNSVLTSRLRISKDNSNSQVFLKMNSLQVDDTARYYCARDRNYYDYDGAMDYWGQGTSVTVSS
VL: DIQVTQSSSYLSVSLGDRVTITCKASDHIKNWLAWYQQKPGIAPRLLVSGATSLEAGVPSRFSGSGSGKNFTLSITSLQTEDVATYYCQQYWSTPWTFGGGTTLEIR

Source: US20240117034A1 (SHANGHAI JEMINCARE PHARMACEUTICAL, published 2024)
